Laboratory results taken from publication PMC2847587 (Molecular cell, 2010).

B1: FAAP24 (natural protein, human (endogenous in HeLa), UniProt Q9BTP7 1-215, looked up)
chain: MEKNPPDDTGPVHVPLGHIVANEKWRGSQLAQEMQGKIKLIFEDGLTPDFYLSNRCCILYVTEADLVAGNGYRKRLVRVRNSNNLKGIVVVEKTRMSEQYFPALQKFTVLDLGMVLLPVASQMEASCLVIQLVQEQTKEPSKNPLLGKKRALLLSEPSLLRTVQQIPGVGKVKAPLLLQKFPSIQQLSNASIGELEQVVGQAVAQQIHAFFTQPR
B2: FANCA (natural protein, human (endogenous in HeLa), UniProt O15360 1-1455, looked up)
chain: MSDSWVPNSASGQDPGGRRRAWAELLAGRVKREKYNPERAQKLKESAVRLLRSHQDLNALLLEVEGPLCKKLSLSKVIDCDSSEAYANHSSSFIGSALQDQASRLGVPVGILSAGMVASSVGQICTAPAETSHPVLLTVEQRKKLSSLLEFAQYLLAHSMFSRLSFCQELWKIQSSLLLEAVWHLHVQGIVSLQELLESHPDMHAVGSWLFRNLCCLCEQMEASCQHADVARAMLSDFVQMFVLRGFQKNSDLRRTVEPEKMPQVTVDVLQRMLIFALDALAAGVQEESSTHKIVRCWFGVFSGHTLGSVISTDPLKRFFSHTLTQILTHSPVLKASDAVQMQREWSFARTHPLLTSLYRRLFVMLSAEELVGHLQEVLETQEVHWQRVLSFVSALVVCFPEAQQLLEDWVARLMAQAFESCQLDSMVTAFLVVRQAALEGPSAFLSYADWFKASFGSTRGYHGCSKKALVFLFTFLSELVPFESPRYLQVHILHPPLVPGKYRSLLTDYISLAKTRLADLKVSIENMGLYEDLSSAGDITEPHSQALQDVEKAIMVFEHTGNIPVTVMEASIFRRPYYVSHFLPALLTPRVLPKVPDSRVAFIESLKRADKIPPSLYSTYCQACSAAEEKPEDAALGVRAEPNSAEEPLGQLTAALGELRASMTDPSQRDVISAQVAVISERLRAVLGHNEDDSSVEISKIQLSINTPRLEPREHMAVDLLLTSFCQNLMAASSVAPPERQGPWAALFVRTMCGRVLPAVLTRLCQLLRHQGPSLSAPHVLGLAALAVHLGESRSALPEVDVGPPAPGAGLPVPALFDSLLTCRTRDSLFFCLKFCTAAISYSLCKFSSQSRDTLCSCLSPGLIKKFQFLMFRLFSEARQPLSEEDVASLSWRPLHLPSADWQRAALSLWTHRTFREVLKEEDVHLTYQDWLHLELEIQPEADALSDTERQDFHQWAIHEHFLPESSASGGCDGDLQAACTILVNALMDFHQSSRSYDHSENSDLVFGGRTGNEDIISRLQEMVADLELQQDLIVPLGHTPSQEHFLFEIFRRRLQALTSGWSVAASLQRQRELLMYKRILLRLPSSVLCGSSFQAEQPITARCEQFFHLVNSEMRNFCSHGGALTQDITAHFFRGLLNACLRSRDPSLMVDFILAKCQTKCPLILTSALVWWPSLEPVLLCRWRRHCQSPLPRELQKLQEGRQFASDFLSPEAASPAPNPDWLSAAALHFAIQQVREENIRKQLKKLDCEREELLVFLFFFSLMGLLSSHLTSNSTTDLPKAFHVCAAILECLEKRKISWLALFQLTESDLRLGRLLLRVAPDQHTRLLPFAFYSLLSYFHEDAAIREEAFLHVAVDMYLKLVQLFVAGDTSTVSPPAGRSLELKGQGNPVELITKARLFLLQLIPRCPKKSFSHVAELLADRGDCDPEVSAALQSRQQAAPDADLSQEPHLF

Legend:
Experiment in all cases: immunodepletion
FANCA = biological target: B2
FAAP24 = biological target: B1
[1] = biological target: MHF1 (FANCM-associated Histone Fold protein 1) (human (endogenous in HeLa), UniProt Q8N2Z9-1 1-138)
MHF1 (FANCM-associated Histone Fold protein 1), sequence (Q8N2Z9 whole entry): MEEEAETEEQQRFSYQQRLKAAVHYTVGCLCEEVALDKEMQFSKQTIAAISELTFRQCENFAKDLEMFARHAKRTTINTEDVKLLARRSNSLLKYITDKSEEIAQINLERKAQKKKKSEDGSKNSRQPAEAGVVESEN

[2] = biological target: MHF2 (FANCM-associated Histone Fold protein 2) (human (endogenous in HeLa), UniProt A8MT69 1-81)
MHF2 (FANCM-associated Histone Fold protein 2), sequence (A8MT69 whole entry): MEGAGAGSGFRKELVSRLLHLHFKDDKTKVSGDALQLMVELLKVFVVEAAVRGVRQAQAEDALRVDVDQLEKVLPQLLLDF

**Q.** With B1 as the binder, how does the percent co-depleted (FANCA) read?
**A.** < 30%

**Q.** For B2, which percent co-depleted (FAAP24) is on record?
**A.** < 25%

**Q.** What about the percent co-depleted [1] of the same binder?
**A.** < 25%

**Q.** And the percent co-depleted [2]?
**A.** < 25%
